Tested on: Human POU5F1B (HA-tagged, overexpressed in SW480 cells)

Chain of ZDHHC-17 palmitoyl transferase (chain, as listed by the source): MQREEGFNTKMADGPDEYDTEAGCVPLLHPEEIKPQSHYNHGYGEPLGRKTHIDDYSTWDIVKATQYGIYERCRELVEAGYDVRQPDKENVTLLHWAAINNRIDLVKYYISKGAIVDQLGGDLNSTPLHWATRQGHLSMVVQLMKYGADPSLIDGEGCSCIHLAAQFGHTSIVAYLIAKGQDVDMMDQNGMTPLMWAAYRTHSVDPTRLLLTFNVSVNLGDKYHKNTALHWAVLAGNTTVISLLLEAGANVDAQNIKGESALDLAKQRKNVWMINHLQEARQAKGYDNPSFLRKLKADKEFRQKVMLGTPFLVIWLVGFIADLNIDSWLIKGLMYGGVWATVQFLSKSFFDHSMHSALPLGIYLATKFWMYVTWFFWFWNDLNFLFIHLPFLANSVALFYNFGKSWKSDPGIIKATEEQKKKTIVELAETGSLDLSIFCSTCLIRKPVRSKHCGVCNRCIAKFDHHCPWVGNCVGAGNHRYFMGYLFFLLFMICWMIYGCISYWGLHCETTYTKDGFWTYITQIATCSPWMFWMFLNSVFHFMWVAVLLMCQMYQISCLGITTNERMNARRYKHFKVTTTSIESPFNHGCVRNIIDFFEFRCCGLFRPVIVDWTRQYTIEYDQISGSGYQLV

Substance: ZDHHC-17 palmitoyl transferase
- DRM association of POU5F1B upon ZDHHC-17 knockdown: POU5F1B dissociates from DRMs upon ZDHHC-17 knockdown

— patent publication US20260216374
